In patent EP3216458A1:

Biological target: Neuropilin-1 (Nrp-1), zebrafish (zebrafish) (UniProt Q8QFX6)
Test: cell-based or functional assay

Chain of UniProt Q8QFX6 (Q8QFX6 20-923 limits assumed): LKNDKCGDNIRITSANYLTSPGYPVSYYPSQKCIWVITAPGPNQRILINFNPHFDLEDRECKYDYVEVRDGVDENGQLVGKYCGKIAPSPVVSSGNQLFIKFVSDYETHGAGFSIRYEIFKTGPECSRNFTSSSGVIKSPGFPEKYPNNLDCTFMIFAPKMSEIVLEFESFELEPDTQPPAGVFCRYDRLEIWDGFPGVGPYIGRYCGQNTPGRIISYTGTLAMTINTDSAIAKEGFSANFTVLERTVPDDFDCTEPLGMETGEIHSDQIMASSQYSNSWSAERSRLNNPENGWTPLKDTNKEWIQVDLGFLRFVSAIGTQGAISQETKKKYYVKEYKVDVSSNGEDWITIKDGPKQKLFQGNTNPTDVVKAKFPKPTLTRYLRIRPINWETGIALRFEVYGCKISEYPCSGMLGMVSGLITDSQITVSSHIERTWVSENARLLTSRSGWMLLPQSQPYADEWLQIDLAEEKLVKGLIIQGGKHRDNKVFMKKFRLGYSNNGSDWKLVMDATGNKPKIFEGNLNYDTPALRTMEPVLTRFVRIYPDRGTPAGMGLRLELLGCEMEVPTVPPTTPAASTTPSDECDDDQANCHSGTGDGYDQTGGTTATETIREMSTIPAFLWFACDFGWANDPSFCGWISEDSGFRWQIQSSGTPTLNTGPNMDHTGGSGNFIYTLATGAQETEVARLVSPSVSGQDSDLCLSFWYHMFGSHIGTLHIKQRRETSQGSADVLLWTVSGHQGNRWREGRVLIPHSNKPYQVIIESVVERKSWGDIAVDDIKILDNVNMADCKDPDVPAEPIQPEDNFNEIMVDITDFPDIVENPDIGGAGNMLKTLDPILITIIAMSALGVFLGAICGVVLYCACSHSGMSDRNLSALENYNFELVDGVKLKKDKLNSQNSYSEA

In the case of “Vegfaa-165 R165E (zebrafish VEGF-A isoform 165 with arginine 165 changed to glutamic acid) (ligand)”, the Rescue percentage (embryos with blood flow circulation and without pericardial edema after mRNA injection into vegfaa-/- zebrafish) is reported as 3%.
